Results on one molecule are retold here after patent US5458874A, “Method of increasing monocyte chemotaxis with CAP37 and monocyte chemotactic portions thereof” (Emory University, priority 1992, dated 1995).

Entries after “also recorded” stand apart in the source; their conditions may differ.

The test system of assay [1] is LPS from S. minnesota wild type; LPS from S. minnesota Re mutant. Briefly: ELISA, binding of CAP37 to LPS. The following applies: CAP37 at 120 ng/well; LPS 0 to 50 μg/ml. The method, then:
(§1) The LPS from S. minnesota wild type, S. minnesota Re mutant, Lipid A from S. minnesota R595, and Lipid A from S. typhimurium Re mutant were applied to microtiter wells at concentrations ranging from 0 to 50 μg/ml and incubated overnight. The trays were then incubated with CAP37 at 120 ng/well for 1 hour at 37° C. The next incubation was with a rabbit antiserum against CAP37 (1:400 dilution) and the color development was as previously described (Pereira et al., 1989) and the absorbance was read at 492 nm.
On the technique in general: In an ELISA, binding on a coated surface is turned into a signal by an enzyme label.

In the next assay the test system is Salmonella SH7518. The experiment in a line: Bactericidal assay. The following applies: Salmonella SH7518. In kind it is cell-based, Salmonella typhimurium. The method, then:
(§2) An overnight culture of Salmonella typhimurium (or other microorganism of interest, if desired) is set up by inoculating one colony in 5 ml of LB Broth (LB Broth consists of 10 g BACTO tryptone (DIFCO), 5 g BACFO yeast (DIFCO) and 5 g NaCl made up to 1 L with endotoxin free water; add 15 g of BACTO agar (DIFCO) to this broth to make LB agar (autoclave). The culture is incubated at 37° C. with rotation. 100 μl of this overnight culture is then transferred to 5 ml of fresh LB Broth and incubated at 37° C. with rotation for 2 hours. Four ml of this log phase culture is then transferred to a sterile cuvette and the optical density is read at […]. Dilutions of the microorganism are then made in tryptone saline (5 g BAOTO tryptone (DIFCO) and 5 g NaCl made up to 1 L with endotoxin free water, pH 5.5) to give a final concentration of 5×10^3 organisms/ml (an O.D. reading of 0.25 at 520 mm is equivalent to 1×10^8 organisms/ml). The microorganisms are placed at 4° C. until ready to be used.
(§3) The stock solutions of peptides are stored at -20° C. at concentrations of 1 mg/ml of endotoxin-free water. The peptide is diluted out in tryptone saline to the desired concentration. 100 μl of the peptide is added to each well of the microtitre plate (Corning) and then 100 μl of the bacterial suspension (well vortexed) is added. Each assay point is set up in triplicate. 100 μl of a control, consisting of bacteria and tryptone saline (T=0) in the absence of peptide is plated out on LB agar plates. The microliter plate is then incubated at 37° C. for 1 hour. At the end of the incubation time, 100 μl of each sample is plated out on LB agar plates. The T=60 control (consisting of bacteria and tryptone saline in the absence of peptide) is plated out last. The plates are incubated overnight, and the number of colony forming units (CFU) are determined.
(§4) The % killed is determined as follows: [formula]

The next assay has as its system lymphocytes. The experiment in a line: Lymphocyte chemotaxis, modified Boyden chamber technique. In kind it is cell-based, human. As to conditions: range employed in these experiments. The procedure:
(§5) Chemotaxis was measured using the modified Boyden chamber technique (Snyderman et al.). The leading front method (Zigmond et al.) was used to assess migration of monocytes and lymphocytes through a 8 μm filter (Millipore Corporation, Bedford, Mass.). PMN chemotaxis was measured using a 3 μm filter (Millipore). The purified CAP37 protein (Example 1) used in chemotaxis assays were endotoxin-free as determined by the Limulus Amoebocyte Lysate Assay (Whittaker Bioproducts, Inc., Walkersville, Md.). The dilutions of CAP37 and N-formyl-methionyl-leucyl-phenylalanine (FMLP) were made in Geys buffer (Gibco) containing 2% endotoxin-free bovine serum albumin (BSA). Geys buffer containing 2% BSA served as the negative control, and a […] solution of FMLP as the positive control.
(§6) The chambers were incubated in a humidified atmosphere (6.2% CO2) for 2 hours when testing monocytes and lymphocytes, and for 30 minutes when testing PMNs. The filters were then removed and processed as previously described (Snyderman et al.). The cells were viewed using oil immersion and the distance the cells had migrated into the filter was determined over five different fields on the same slide (Zigmond et al.). Triplicate assays were performed for each experimental point.

The subject of another assay is Re LPS from Salmonella. The experiment in a line: Neutralization of LPS activity, limulus amebocyte lysate (LAL) assay, Re LPS. Type of assay: biochemical. The method, then:
(§7) Further, the neutralization of LPS activity, as assayed by the limulus amebocyte lysate (LAL) assay, by CAP37 was measured. CAP37 was diluted to the desired concentrations (from 6.2 ng/ml to 500 ng/ml) in geys buffered saline pH 7 (GIBCO). To this wild type LPS (RIBI IMMUNOCHEM) or Re LPS from Salmonella (David Morrison, Kansas Medical Center) was added so that the final concentrations were 0.1, 0.5, 1.0 and 2.0 ng/ml LPS. The tubes were incubated at 37° C. for between 30 to 60 minutes and then assayed in the chromogenic LAL assay, using polymyxin E as a control.
(§8) As discussed in Example 11, peptides can be screened for lipopolysaccharide neutralizing capacity using the LAL assay also. The CAP37 peptide was diluted to the desired concentrations (from 125 ng/ml to 4000 ng/ml) in geys buffered saline pH 7 (GIBCO). To this is added the wild type LPS (RIBI IMMUNOCHEM) or Re LPS from Salmonella (David Morrison, Kansas Medical Center) so that the final concentration is 0.1, 0.5, and 1.0 ng/ml LPS. The tubes were incubated at 37° C. for between 30 to 60 minutes and then assayed in the chromogenic LAL assay.

Another assay relates to E. coli. As to conditions: (Shafer, 1986); cited from earlier work.
The next assay concerns PMN. Briefly: PMN chemotaxis, modified Boyden chamber technique. Type of assay: cell-based, human. As to conditions: range employed in these experiments. The method, then: as §5, §6
For a further assay, the system named is Salmonella SH7426. The experiment in a line: Bactericidal assay. In kind it is cell-based. The procedure:
as §2, §3, §4

A further assay has as its system Salmonella LT2. The following applies: (Shafer, 1986); cited from earlier work.
Assay [2] concerns Lipid A from S. minnesota R595; Lipid A from S. typhimurium Re mutant. The experiment in a line: ELISA, binding of CAP37 to Lipid A. The following applies: CAP37 at 120 ng/well; Lipid A 0 to 50 μg/ml. The method, then: as §1
In a further assay the test system is wild type LPS. Briefly: Neutralization of LPS activity, limulus amebocyte lysate (LAL) assay, wild type LPS. In kind it is biochemical. The procedure:
as §7, §8

Another assay concerns rabbit PMN. Briefly: Rabbit PMN chemotaxis. Type of assay: cell-based. The procedure: as §5, §6

B1: CAP37: granule-associated cationic protein (mol. wt. 37,000 daltons) from human PMN, 222 amino acid mature protein (protein)
chain: IVGGRKARPRQFPFLASIQNQGRHFCGGALIHARFVMTAASCFQSQNPGVSTVVLGAYDLRRRERQSRQTFSISSMSENGYDPQQNLNDLMLLQLDREANLTSSVTILPLPLQNATVEAGTRCQVAGWGSQRSGGRLSRFPRFVNVTVTPEDQCRPNNVCTGVLTRRGGICNGDGGTPLVCEGLAHGVASFSLGPCGRGPDFFTRVALFRDWIDGVLNNPGP
As to B1, in assay [1], the “binding to LPS (ELISA)” value is listed as “capable of binding Re LPS”. For the same molecule, the “% survival with CAP 37” value in the assay with Salmonella SH7518 was 10.9%; with E. coli it was 4%; in the assay with Salmonella SH7426, 64.3%; in the assay on Salmonella LT2, 43%. For the same molecule, the “effect on lymphocyte chemotaxis” value with lymphocytes is on record as “did not have any effect”. Besides, the “neutralization of Re LPS activity (LAL assay)” value in the assay with Re LPS from Salmonella is listed as “significantly neutralized LPS activity”. Moreover, the “effect on PMN chemotaxis” value in the assay with PMN was “did not have any effect”. The “binding to Lipid A (ELISA)” value in [2] is on record as “capable of binding LPS and, in particular, Lipid A; also recorded: able to bind to Lipid A better than wild type LPS”. The “neutralization of wild type LPS activity (LAL assay)” value in the assay with wild type LPS is listed as “significantly neutralized LPS activity”. Further, the “chemotactic response of rabbit PMN” value in the assay with rabbit PMN is “did not show a chemotactic response”.
